Data reported in doi:10.1101/2020.05.16.099382 (bioRxiv, 2020).
Like-named read-outs stand apart in the source and are kept apart here.

B1: Rubisco large subunit of Nostoc sp. PCC 7120 (natural protein, UniProt P00879 1-476, looked up)
chain: MSYAQTKTQTKSGYKAGVQDYRLTYYTPDYTPKDTDILAAFRVTPQPGVPFEEAAAAVAAESSTGTWTTVWTDLLTDLDRYKGRCYDIEPVPGEDNQFIAYIAYPLDLFEEGSITNVLTSIVGNVFGFKALRALRLEDIRFPVAYIKTFQGPPHGIQVERDKLNKYGRPLLGCTIKPKLGLSAKNYGRAVYECLRGGLDFTKDDENINSAPFQRWRDRFLFVADAITKAQAETGEIKGHYLNVTAPTCEEMLKRAEYAKELKQPIIMHDYLTAGFTANTTLARWCRDNGVLLHIHRAMHAVIDRQKNHGIHFRVLAKALRLSGGDHIHTGTVVGKLEGERGITMGFVDLLRENYVEQDKSRGIYFTQDWASLPGVMAVASGGIHVWHMPALVEIFGDDSVLQFGGGTLGHPWGNAPGATANRVALEACVQARNEGRNLAREGNDVIREAAKWSPELAVACELWKEIKFEFEAMDTV

Legend:
SEC-MALS = target: the molecule itself; experiment: SEC-MALS
[1] = target: B1; experiment: cryo-EM structure
cryo-EM structure = target: the molecule itself; experiment: cryo-EM structure
[2] = target: B1; experiment: cryo-EM structure; remark: listed apart in the source

| Binder | stoichiometry N (SEC-MALS) | further results |
| --- | --- | --- |
| Rubisco activase ('Rca-like' protein) of Nostoc sp. PCC 7120 (natural protein, UniProt P58555 2-414, looked up) SYYIAPRFLDKLAVHITKNFLNIPGVRVPLILGIHGRKGEGKTFQCELAFEKMGIEVTLISGGELESPDAGDPARLIRLRYRETAELIKVRGKMCVLMINDLDAGAGRFDEGTQYTVNTQLVNATLMNIADNPTDVQLPGSYDSNPIRRVPIIVTGNDFSTLYAPLIRDGRMEKFYWEPNRDDKVGIVGGIFAEDGLSQREIEQLVDTFPKQSIDFFSALRSRIYDIQIRDFIHKVGFERISLRVVNSLEAPPEFKKPDFSLAHLIESGNLVLGEQQRVDNSQLVDEYNRLNRGRGYQTAPPPEAPVIQPVNNSSHKQKTSNTHLSLETQEQIRQILSQGHKITFEHVDARRFRTGSWQSCGTLHIDAESDAISTLEACLVDYDGEYVRMVGIDPKGKRRVVETIIQRPNGKN | 6 | binding result [1]: binds |
| NosRca-IFmut (NosRca V91E/R92G/G93N/L244D/N248A/L250A) (natural protein, Nostoc sp. PCC 7120, UniProt P58555 2-414, looked up) SYYIAPRFLDKLAVHITKNFLNIPGVRVPLILGIHGRKGEGKTFQCELAFEKMGIEVTLISGGELESPDAGDPARLIRLRYRETAELIKEGNKMCVLMINDLDAGAGRFDEGTQYTVNTQLVNATLMNIADNPTDVQLPGSYDSNPIRRVPIIVTGNDFSTLYAPLIRDGRMEKFYWEPNRDDKVGIVGGIFAEDGLSQREIEQLVDTFPKQSIDFFSALRSRIYDIQIRDFIHKVGFERISDRVVASAEAPPEFKKPDFSLAHLIESGNLVLGEQQRVDNSQLVDEYNRLNRGRGYQTAPPPEAPVIQPVNNSSHKQKTSNTHLSLETQEQIRQILSQGHKITFEHVDARRFRTGSWQSCGTLHIDAESDAISTLEACLVDYDGEYVRMVGIDPKGKRRVVETIIQRPNGKN | 6 | – |
| B1 | – | binding result (cryo-EM structure): binds |
| Rubisco small subunit of Nostoc sp. PCC 7120 (natural protein, UniProt P06514 1-109, looked up) MQTLPKERRYETLSYLPPLTDVQIEKQVQYILSQGYIPAVEFNEVSEPTELYWTLWKLPLFGAKTSREVLAEVQSCRSQYPGHYIRVVGFDNIKQCQILSFIVHKPSRY | – | binding result [2]: binds |
| NosRcaΔC (NosRca lacking the C-terminal 123 residues: linker and SSUL domain) (domain or fragment, Nostoc sp. PCC 7120, UniProt P58555 2-291, looked up) SYYIAPRFLDKLAVHITKNFLNIPGVRVPLILGIHGRKGEGKTFQCELAFEKMGIEVTLISGGELESPDAGDPARLIRLRYRETAELIKVRGKMCVLMINDLDAGAGRFDEGTQYTVNTQLVNATLMNIADNPTDVQLPGSYDSNPIRRVPIIVTGNDFSTLYAPLIRDGRMEKFYWEPNRDDKVGIVGGIFAEDGLSQREIEQLVDTFPKQSIDFFSALRSRIYDIQIRDFIHKVGFERISLRVVNSLEAPPEFKKPDFSLAHLIESGNLVLGEQQRVDNSQLVDEYNR | 6 | – |
| NosRcaΔC V91E/R92G/G93N (domain or fragment, Nostoc sp. PCC 7120, UniProt P58555 2-291, looked up) SYYIAPRFLDKLAVHITKNFLNIPGVRVPLILGIHGRKGEGKTFQCELAFEKMGIEVTLISGGELESPDAGDPARLIRLRYRETAELIKEGNKMCVLMINDLDAGAGRFDEGTQYTVNTQLVNATLMNIADNPTDVQLPGSYDSNPIRRVPIIVTGNDFSTLYAPLIRDGRMEKFYWEPNRDDKVGIVGGIFAEDGLSQREIEQLVDTFPKQSIDFFSALRSRIYDIQIRDFIHKVGFERISLRVVNSLEAPPEFKKPDFSLAHLIESGNLVLGEQQRVDNSQLVDEYNR | 6 | – |
| NosRcaΔC P140G/Y143A/D144A (domain or fragment, Nostoc sp. PCC 7120, UniProt P58555 2-291, looked up) SYYIAPRFLDKLAVHITKNFLNIPGVRVPLILGIHGRKGEGKTFQCELAFEKMGIEVTLISGGELESPDAGDPARLIRLRYRETAELIKVRGKMCVLMINDLDAGAGRFDEGTQYTVNTQLVNATLMNIADNPTDVQLGGSAASNPIRRVPIIVTGNDFSTLYAPLIRDGRMEKFYWEPNRDDKVGIVGGIFAEDGLSQREIEQLVDTFPKQSIDFFSALRSRIYDIQIRDFIHKVGFERISLRVVNSLEAPPEFKKPDFSLAHLIESGNLVLGEQQRVDNSQLVDEYNR | 6 | – |
| NosRcaΔC L244D/N248A/L250A (domain or fragment, Nostoc sp. PCC 7120, UniProt P58555 2-291, looked up) SYYIAPRFLDKLAVHITKNFLNIPGVRVPLILGIHGRKGEGKTFQCELAFEKMGIEVTLISGGELESPDAGDPARLIRLRYRETAELIKVRGKMCVLMINDLDAGAGRFDEGTQYTVNTQLVNATLMNIADNPTDVQLPGSYDSNPIRRVPIIVTGNDFSTLYAPLIRDGRMEKFYWEPNRDDKVGIVGGIFAEDGLSQREIEQLVDTFPKQSIDFFSALRSRIYDIQIRDFIHKVGFERISDRVVASAEAPPEFKKPDFSLAHLIESGNLVLGEQQRVDNSQLVDEYNR | 6 | – |
